Source: patent JP2011016773A

Target: HAMA血清タイプ1(Roche製、品番:1767275)
Assay: forward sandwich ELISA, inhibition of HAMA bridging of anti-hCEA antibodies, blocker solution at 1 ug/ml

HAMA回避率 | HAMA回避効果 | Substance
69% | – | MAK33−IgG1(Roche製、品番:1200941) (antibody)
68% | – | Heterophilic Blocking Reagent1 (SCANTIBODIES LABORATORY，INC.製、品番:3KC534−075)
– | 61% | マウスIgG(CHEMICON製、品番:PP54) (antibody)
